Data on 2 molecules can be found in patent US20250034275A1 (CHIA TAI TIANQING PHARMACEUTICAL GROUP, published 2025).

Assay [1] addresses human Trop-2 (on the surface of human cell lines) (human) (UniProt P09758). Put plainly: flow cytometry, OVCAR-3 cells, isotype control at 3 ug/mL (background).
Assay [2] shares this target. Briefly: flow cytometry, HCC1806 cells, isotype control at 3 ug/mL (background).
Assay [3] shares this target. Briefly: flow cytometry, NCI-H322 cells, isotype control at 3 ug/mL (background).
For assay [4] the target is unchanged. Put plainly: flow cytometry, HUVEC cells, isotype control at 3 ug/mL (background).
Assay [5] has the same target. Put plainly: flow cytometry, Capan-1 cells, isotype control at 3 ug/mL (background).
The target is the same in assay [6]. Put plainly: flow cytometry, HCC38 cells, isotype control at 3 ug/mL (background).
Assay [7] shares this target. Briefly: flow cytometry, PC-3 cells, isotype control at 3 ug/mL (background).
Assay [8] has as its target T1, human Trop-2 (on the surface of human cell lines) (human, UniProt P09758 27-323).
T1 sequence: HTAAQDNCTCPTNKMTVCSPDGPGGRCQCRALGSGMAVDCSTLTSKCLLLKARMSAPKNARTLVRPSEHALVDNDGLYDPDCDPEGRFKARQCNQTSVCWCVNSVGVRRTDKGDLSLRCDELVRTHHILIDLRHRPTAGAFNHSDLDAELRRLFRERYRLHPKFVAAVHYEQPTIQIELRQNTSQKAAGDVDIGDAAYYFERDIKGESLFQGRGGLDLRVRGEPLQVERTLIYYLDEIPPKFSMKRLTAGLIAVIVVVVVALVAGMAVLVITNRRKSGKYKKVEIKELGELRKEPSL
Briefly: cell-based or functional assay.

The target of assay [9] is T1, human Trop-2 (on the surface of human …). Put plainly: flow cytometry, HCC1806 cells. In short, it runs like this:
(§1)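 Trop-2-expressing tumour cells incubated with test antibodies (0.006–100 nM) for 1 h at 4 °C in the dark, then with Alexa Fluor 488 anti-human IgG for 40 min at 4 °C. Binding EC50 derived from geometric mean fluorescence intensity.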

Assay [10] shares this target. Briefly: flow cytometry, OVCAR-3 cells. On the procedure:
Tumor cells expressing Trop-2 were prepared into a cell suspension (0.5-1×10⁶ cells/mL) using the FACS buffer (Miltenyi Biotec, 130-091-221), and the cell suspension was added to a 96-well V-bottom plate at 100 μL/well. After centrifugation and removal of the supernatant, the test antibodies diluted with the FACS buffer to different concentrations (0.006 nM-100 nM) were each added at 50 μL/well. The mixture was incubated in the dark in a 4° C. refrigerator for 1 h. The plate was then washed 3 times with the FACS buffer by centrifugation at 300 g, and Alexa Fluor 488 goat anti-human IgG (H+L) (Bio-legend, 409304, 1:500 dilution) at working concentration was added. The mixture was incubated in the dark in a 4° C. refrigerator for 40 min. The plate was then washed 3 times with the FACS buffer by centrifugation at 300 g, the geometric mean fluorescence intensity (MFI) was measured on a Sartorius iQue3 flow cytometer, and the binding EC₅₀ values of the antibodies for tumor cells with different Trop-2 expression levels were calculated

Assay [11] deals with T2, human Trop-2-His (human, UniProt P09758 27-274, limits assumed).
T2 construct: by analogy with the macaque construct it is probably the extracellular domain with a His tag; also called Trop-2-His protein
T2 sequence: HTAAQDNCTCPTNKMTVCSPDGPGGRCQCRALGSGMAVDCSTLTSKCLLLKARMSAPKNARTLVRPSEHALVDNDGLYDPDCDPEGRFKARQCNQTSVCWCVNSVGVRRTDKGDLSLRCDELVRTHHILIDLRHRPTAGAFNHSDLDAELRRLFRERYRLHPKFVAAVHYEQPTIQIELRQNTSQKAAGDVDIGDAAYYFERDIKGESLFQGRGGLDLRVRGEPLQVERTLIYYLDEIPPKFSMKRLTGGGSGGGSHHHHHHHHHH
Briefly: ELISA, plate-coated human Trop-2-His.

Another assay deals with T3, Macaque Trop-2-His (macaque, UniProt P09758 27-274 (human entry)).
T3 construct: Extracellular domain of macaque Trop-2 recombinantly linked to His; also called monkey Trop-2-His protein; monkey Trop-2
T3 chain: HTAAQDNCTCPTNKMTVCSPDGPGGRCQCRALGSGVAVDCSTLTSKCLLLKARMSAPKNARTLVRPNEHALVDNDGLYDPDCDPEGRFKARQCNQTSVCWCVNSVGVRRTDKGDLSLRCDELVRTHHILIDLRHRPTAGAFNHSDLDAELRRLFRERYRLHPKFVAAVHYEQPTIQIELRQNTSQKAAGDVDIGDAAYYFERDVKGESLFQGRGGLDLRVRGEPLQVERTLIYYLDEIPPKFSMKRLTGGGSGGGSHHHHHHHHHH
Briefly: ELISA, plate-coated macaque Trop-2-His. A digest of the protocol:
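Plates coated with macaque Trop-2-His were blocked with 2% BSA, then incubated with serially diluted antibodies for 1 h at 37 °C. Bound antibody was detected with HRP goat anti-human IgG (1:5000) and TMB, read at 450 nm, and EC50 values were obtained from fitted binding curves.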

Assay [12] addresses T1, human Trop-2 (on the surface of human …). Put plainly: flow cytometry, HCC38 cells. In short, it runs like this:
as §1

The target in assay [13] is T2, human Trop-2-His. Put plainly: SPR (Biacore 8K), antibody captured, Trop-2-His as analyte. A digest of the protocol: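 Antibody captured on anti-human IgG-coated CM5 chip; human Trop-2-His flowed as analyte with real-time association/dissociation recording, 3M MgCl₂ regeneration. Double-subtracted curves fit to Langmuir 1:1 model giving ka, kd and KD.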
Assay [14] concerns the target T1, human Trop-2 (on the surface of human …). Briefly: cell-based or functional assay. This is another data set of the same source.

On to human IgG1 control antibody, for which the MFI was 11800 in [1]; 16200 in assay [2]; 21300 in [3]; 20500 in assay [4]; 65600 in assay [5]; 32400 in assay [6]. In assay [7], this molecule came in with an MFI of 8920.

B1: hz-Ab35-2.3 (antibody, human IgG1, kappa, V domains shown)
VH: QVQLVQSGAEVKKPGASVKVSCKASGYTFTSSDINWVRQRPGQGLEWMGWIYPRDGSKKYNEKFKGRVTMTVDTSTSTVYMELSSLRSEDTAVYYCATRFATVVSNYGLDPWGQGTLVTVSS
VL: EIVLTQSPATLSLSPGERATLSCSASSSVNYIYWYQRKPGQAPRLLIYDTSNLASGIPARFSGSGSGTDYTLTISSLEPEDFAVYYCQQWNSYPLTFGQGTKVEIKR
notes: Humanized antibody
Take B1: in [8], the “ADCC, PBMC killing (LDH), H322, EC50” value worked out at 0.02 nM; the “ADCC, PBMC killing (LDH), H322, Maximum killing (%)” value came out at 50.3%; the “ADCC, PBMC killing (LDH), HCC1806, EC50” value was found to be 0.03 nM; the “ADCC, PBMC killing (LDH), HCC1806, Maximum killing (%)” value came out at 35.7%. The molecule further gave an EC50 in assay [9] of 0.61 nM. The molecule further gave an EC50 in [10] of 0.74 nM. In the assay with human Trop-2-His [11], this molecule gave an EC50 of 0.065 nM. The response in the assay with Macaque Trop-2-His was half-maximal at 0.031 nM (EC50). The EC50 in assay [12] came out at 0.91 nM. In the assay with human Trop-2-His [13], this molecule displayed a Kd of 0.675 nM, a koff of 0.000281 s⁻¹ and a kon of 416000 M⁻¹ s⁻¹. In assay [14], the “ADCC reporter (Jurkat-CD16a v158-NFAT-luciferase), target cell H322, EC50” value amounted to 0.11 nM and the “ADCC reporter (Jurkat-CD16a v158-NFAT-luciferase), target cell HCC1806, EC50” value is 0.21 nM.
